B1: Mutation 1-21 (antibody)
heavy: EVQMVESGGGLLKPGGSLKLSCAASGFTFSNYAMSWVRQTPEKRLEWVATISSGGSYSFYPDSVKGRFTISRDNAKNTLYLQMLSLRSEDTAMYYCARRDNYYGSTFMDYWGQGSSVTVSSAKTTPPSVYPLAPGSAAQTNSMVTLGCLVKGYFPEPVTVTWNSGSLSSGVHTFPAVLQSDLYTLSSSVTVPSSTWPSQTVTCNVAHPASSTKVDKKIVPRDCGCKPCICTVPEVSSVFIFPPKPKDVLTITLTPKVTCVVVDISKDDPEVQFSWFVDDVEVHTAQTKPREEQFNSTFRSVSELPIMHQDWLNGKEFKCRVNSAAFPAPIEKTISKTKGRPKAPQVYTIPPPKEQMAKDKVSLTCMITNFFPEDITVEWQWNGQPAENYKNTQPIMDTDGSYFVYSKLNVQKSNWEAGNTFTCSVLHEGLHNHHTEKSLSHSPG
light: DIQMTQTSSSLSASLGDRVTISCRASQDITNYLNWYQQKPDGTIKLLIYYTSRIHSGVSSRFSGSGSGTDYSLTISNLEQEDIATYFCQQGHTLPLTFDTGTKLELKRADAAPTVSIFPPSSEQLTSGGASVVCFLNNFYPKDINVKWKIDGSERQNGVLNSWTDQDSKDSTYSMSSTLTLTKDEYERHNSYTCEATHKTSTSPIVKSFNRNEC
notes: assembled FR/CDR/constant
B2: Mutation 1-27 (antibody)
heavy: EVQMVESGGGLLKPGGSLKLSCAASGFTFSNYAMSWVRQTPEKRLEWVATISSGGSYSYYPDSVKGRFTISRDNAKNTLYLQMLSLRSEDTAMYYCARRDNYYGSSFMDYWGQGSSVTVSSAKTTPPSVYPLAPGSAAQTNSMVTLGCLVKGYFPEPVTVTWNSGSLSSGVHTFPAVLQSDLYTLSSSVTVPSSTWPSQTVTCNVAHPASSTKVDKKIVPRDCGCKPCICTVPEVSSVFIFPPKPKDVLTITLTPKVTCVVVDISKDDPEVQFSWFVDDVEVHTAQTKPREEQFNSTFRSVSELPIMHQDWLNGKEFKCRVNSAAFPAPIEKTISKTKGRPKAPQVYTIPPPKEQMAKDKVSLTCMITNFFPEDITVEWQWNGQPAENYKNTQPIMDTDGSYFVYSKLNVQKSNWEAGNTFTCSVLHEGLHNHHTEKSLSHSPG
light: DIQMTQTSSSLSASLGDRVTISCRASQDITNYLNWYQQKPDGTIKLLIYYTSRLHSGVSSRFSGSGSGTDYSLTISNLEQEDIATYFCQQGNTIPLTFDTGTKLELKRADAAPTVSIFPPSSEQLTSGGASVVCFLNNFYPKDINVKWKIDGSERQNGVLNSWTDQDSKDSTYSMSSTLTLTKDEYERHNSYTCEATHKTSTSPIVKSFNRNEC
notes: assembled FR/CDR/constant
B3: Mutation 1-22 (antibody)
heavy: EVQMVESGGGLLKPGGSLKLSCAASGFTYSNYAMSWVRQTPEKRLEWVATISSGGSYSFYPDSVKGRFTISRDNAKNTLYLQMLSLRSEDTAMYYCARRDNYYGSSFMDYWGQGSSVTVSSAKTTPPSVYPLAPGSAAQTNSMVTLGCLVKGYFPEPVTVTWNSGSLSSGVHTFPAVLQSDLYTLSSSVTVPSSTWPSQTVTCNVAHPASSTKVDKKIVPRDCGCKPCICTVPEVSSVFIFPPKPKDVLTITLTPKVTCVVVDISKDDPEVQFSWFVDDVEVHTAQTKPREEQFNSTFRSVSELPIMHQDWLNGKEFKCRVNSAAFPAPIEKTISKTKGRPKAPQVYTIPPPKEQMAKDKVSLTCMITNFFPEDITVEWQWNGQPAENYKNTQPIMDTDGSYFVYSKLNVQKSNWEAGNTFTCSVLHEGLHNHHTEKSLSHSPG
light: DIQMTQTSSSLSASLGDRVTISCRASQDITNYLNWYQQKPDGTIKLLIYYTSRIHSGVSSRFSGSGSGTDYSLTISNLEQEDIATYFCQQGHTIPLTFDTGTKLELKRADAAPTVSIFPPSSEQLTSGGASVVCFLNNFYPKDINVKWKIDGSERQNGVLNSWTDQDSKDSTYSMSSTLTLTKDEYERHNSYTCEATHKTSTSPIVKSFNRNEC
notes: assembled FR/CDR/constant
B4: Mutation 1-28 (antibody)
heavy: EVQMVESGGGLLKPGGSLKLSCAASGFTYSNYAMSWVRQTPEKRLEWVATISSGGSYSYYPDSVKGRFTISRDNAKNTLYLQMLSLRSEDTAMYYCARRDNYPGSTFMDYWGQGSSVTVSSAKTTPPSVYPLAPGSAAQTNSMVTLGCLVKGYFPEPVTVTWNSGSLSSGVHTFPAVLQSDLYTLSSSVTVPSSTWPSQTVTCNVAHPASSTKVDKKIVPRDCGCKPCICTVPEVSSVFIFPPKPKDVLTITLTPKVTCVVVDISKDDPEVQFSWFVDDVEVHTAQTKPREEQFNSTFRSVSELPIMHQDWLNGKEFKCRVNSAAFPAPIEKTISKTKGRPKAPQVYTIPPPKEQMAKDKVSLTCMITNFFPEDITVEWQWNGQPAENYKNTQPIMDTDGSYFVYSKLNVQKSNWEAGNTFTCSVLHEGLHNHHTEKSLSHSPG
light: DIQMTQTSSSLSASLGDRVTISCRASQDITNYLNWYQQKPDGTIKLLIYYTSRLHSGVSSRFSGSGSGTDYSLTISNLEQEDIATYFCQQGHTLPLTFDTGTKLELKRADAAPTVSIFPPSSEQLTSGGASVVCFLNNFYPKDINVKWKIDGSERQNGVLNSWTDQDSKDSTYSMSSTLTLTKDEYERHNSYTCEATHKTSTSPIVKSFNRNEC
notes: assembled FR/CDR/constant
B5: Mutation 1-24 (antibody)
heavy: EVQMVESGGGLLKPGGSLKLSCAASGFTYSNYAMSWVRQTPEKRLEWVATISSGGSYSYYPDSVKGRFTISRDNAKNTLYLQMLSLRSEDTAMYYCARRDNYFGSTFMDYWGQGSSVTVSSAKTTPPSVYPLAPGSAAQTNSMVTLGCLVKGYFPEPVTVTWNSGSLSSGVHTFPAVLQSDLYTLSSSVTVPSSTWPSQTVTCNVAHPASSTKVDKKIVPRDCGCKPCICTVPEVSSVFIFPPKPKDVLTITLTPKVTCVVVDISKDDPEVQFSWFVDDVEVHTAQTKPREEQFNSTFRSVSELPIMHQDWLNGKEFKCRVNSAAFPAPIEKTISKTKGRPKAPQVYTIPPPKEQMAKDKVSLTCMITNFFPEDITVEWQWNGQPAENYKNTQPIMDTDGSYFVYSKLNVQKSNWEAGNTFTCSVLHEGLHNHHTEKSLSHSPG
light: DIQMTQTSSSLSASLGDRVTISCRASQEITNYLNWYQQKPDGTIKLLIYYTSRIHSGVSSRFSGSGSGTDYSLTISNLEQEDIATYFCQQGHTIPLTFDTGTKLELKRADAAPTVSIFPPSSEQLTSGGASVVCFLNNFYPKDINVKWKIDGSERQNGVLNSWTDQDSKDSTYSMSSTLTLTKDEYERHNSYTCEATHKTSTSPIVKSFNRNEC
notes: assembled FR/CDR/constant
B6: Mutation 1-26 (antibody)
heavy: EVQMVESGGGLLKPGGSLKLSCAASGFTYSNYAMSWVRQTPEKRLEWVATISSGGSYSFYPDSVKGRFTISRDNAKNTLYLQMLSLRSEDTAMYYCARRDNYYGSTFMDYWGQGSSVTVSSAKTTPPSVYPLAPGSAAQTNSMVTLGCLVKGYFPEPVTVTWNSGSLSSGVHTFPAVLQSDLYTLSSSVTVPSSTWPSQTVTCNVAHPASSTKVDKKIVPRDCGCKPCICTVPEVSSVFIFPPKPKDVLTITLTPKVTCVVVDISKDDPEVQFSWFVDDVEVHTAQTKPREEQFNSTFRSVSELPIMHQDWLNGKEFKCRVNSAAFPAPIEKTISKTKGRPKAPQVYTIPPPKEQMAKDKVSLTCMITNFFPEDITVEWQWNGQPAENYKNTQPIMDTDGSYFVYSKLNVQKSNWEAGNTFTCSVLHEGLHNHHTEKSLSHSPG
light: DIQMTQTSSSLSASLGDRVTISCRASQEITNYLNWYQQKPDGTIKLLIYYTSRIHSGVSSRFSGSGSGTDYSLTISNLEQEDIATYFCQQGHTLPLTFDTGTKLELKRADAAPTVSIFPPSSEQLTSGGASVVCFLNNFYPKDINVKWKIDGSERQNGVLNSWTDQDSKDSTYSMSSTLTLTKDEYERHNSYTCEATHKTSTSPIVKSFNRNEC
notes: assembled FR/CDR/constant
B7: Mutation 1-23 (antibody)
heavy: EVQMVESGGGLLKPGGSLKLSCAASGFTFSNYAMSWVRQTPEKRLEWVATISSGGSYSYYPDSVKGRFTISRDNAKNTLYLQMLSLRSEDTAMYYCARRDNYPGSTFMDYWGQGSSVTVSSAKTTPPSVYPLAPGSAAQTNSMVTLGCLVKGYFPEPVTVTWNSGSLSSGVHTFPAVLQSDLYTLSSSVTVPSSTWPSQTVTCNVAHPASSTKVDKKIVPRDCGCKPCICTVPEVSSVFIFPPKPKDVLTITLTPKVTCVVVDISKDDPEVQFSWFVDDVEVHTAQTKPREEQFNSTFRSVSELPIMHQDWLNGKEFKCRVNSAAFPAPIEKTISKTKGRPKAPQVYTIPPPKEQMAKDKVSLTCMITNFFPEDITVEWQWNGQPAENYKNTQPIMDTDGSYFVYSKLNVQKSNWEAGNTFTCSVLHEGLHNHHTEKSLSHSPG
light: DIQMTQTSSSLSASLGDRVTISCRASQEITNYLNWYQQKPDGTIKLLIYYTSRIHSGVSSRFSGSGSGTDYSLTISNLEQEDIATYFCQQGHTIPLTFDTGTKLELKRADAAPTVSIFPPSSEQLTSGGASVVCFLNNFYPKDINVKWKIDGSERQNGVLNSWTDQDSKDSTYSMSSTLTLTKDEYERHNSYTCEATHKTSTSPIVKSFNRNEC
notes: assembled FR/CDR/constant
B8: Mutation 1-25 (antibody)
heavy: EVQMVESGGGLLKPGGSLKLSCAASGFTFSNYAMSWVRQTPEKRLEWVATISSGGSYSFYPDSVKGRFTISRDNAKNTLYLQMLSLRSEDTAMYYCARRDNYFGSSFMDYWGQGSSVTVSSAKTTPPSVYPLAPGSAAQTNSMVTLGCLVKGYFPEPVTVTWNSGSLSSGVHTFPAVLQSDLYTLSSSVTVPSSTWPSQTVTCNVAHPASSTKVDKKIVPRDCGCKPCICTVPEVSSVFIFPPKPKDVLTITLTPKVTCVVVDISKDDPEVQFSWFVDDVEVHTAQTKPREEQFNSTFRSVSELPIMHQDWLNGKEFKCRVNSAAFPAPIEKTISKTKGRPKAPQVYTIPPPKEQMAKDKVSLTCMITNFFPEDITVEWQWNGQPAENYKNTQPIMDTDGSYFVYSKLNVQKSNWEAGNTFTCSVLHEGLHNHHTEKSLSHSPG
light: DIQMTQTSSSLSASLGDRVTISCRASQDITNYLNWYQQKPDGTIKLLIYYTSRLHSGVSSRFSGSGSGTDYSLTISNLEQEDIATYFCQQGNTLPLTFDTGTKLELKRADAAPTVSIFPPSSEQLTSGGASVVCFLNNFYPKDINVKWKIDGSERQNGVLNSWTDQDSKDSTYSMSSTLTLTKDEYERHNSYTCEATHKTSTSPIVKSFNRNEC
notes: assembled FR/CDR/constant

As usually defined, the Kd is the constant that tells how readily two partners part at equilibrium. In general, koff refers to the first-order rate constant of dissociation. As usually defined, the kon is the second-order rate constant of association.

The target of the assay is T1, CTNI quality control recombinant antigen (human, UniProt P19429 1-210, limits assumed).
T1 construct: Recombinant antigen produced by the applicant; also called CTNI quality control recombinant protein (antigen produced by the company); cardiac troponin I
T1 sequence (P19429 whole entry): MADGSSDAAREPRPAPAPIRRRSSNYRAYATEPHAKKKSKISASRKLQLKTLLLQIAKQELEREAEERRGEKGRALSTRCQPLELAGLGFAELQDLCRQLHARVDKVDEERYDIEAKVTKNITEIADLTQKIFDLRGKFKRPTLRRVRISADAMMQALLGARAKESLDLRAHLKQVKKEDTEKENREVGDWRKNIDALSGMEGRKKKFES
Briefly: BLI, antibody on AMC sensor, cTnI in solution. How it is done: With an AMC sensor, the purified antibody was diluted to 10 μg/ml with PBST, and CTNI quality control recombinant protein (antigen produced by the company) was gradient diluted with PBST to 769.2 nmol/ml, 384.6 nmol/ml, 192.3 nmol/ml, 96.2 nmol/ml, 48.1 nmol/ml, 24 nmol/ml, 12 nmol/ml, and 0 nmol/ml.
Background: Biolayer interferometry detects binding as a change in optical thickness at a sensor tip.
For the molecule B1, the equilibrium dissociation constant (Kd) stood at 9.55 nM, the koff came to 0.000632 s⁻¹ and the kon amounted to 66200 M⁻¹ s⁻¹.
For B2, in that order: 6.3 nM, 0.000501 s⁻¹ and 79600 M⁻¹ s⁻¹.
For B3, in that order: 9.07 nM, 0.000312 s⁻¹ and 34400 M⁻¹ s⁻¹.
The like results for B4 were, in that order, 3.68 nM, 4.31e-05 s⁻¹ and 11700 M⁻¹ s⁻¹.
Consider B5, for which the Kd is 5.37 nM, the koff stood at 0.000248 s⁻¹ and the kon worked out at 46100 M⁻¹ s⁻¹.
Regarding B6, the Kd came out at 1.38 nM, the off-rate constant (koff) came to 3.48e-05 s⁻¹ and the on-rate constant (kon) was found to be 25200 M⁻¹ s⁻¹.
The like results for B7 were, in that order, 4.31 nM, 0.000336 s⁻¹ and 77900 M⁻¹ s⁻¹.
For the molecule B8, the Kd came out at 5.36 nM, the koff was 0.000364 s⁻¹ and the kon is 67900 M⁻¹ s⁻¹.
